Earlier results on 16 substances are cited in publication PMC12990809.

Assay in all cases: pulldown
Holding throughout (conditions): 20 nM protein, 1.5 uM RNA pool; 20 mM HEPES pH 7.8, 70 mM KCl, 10 mM NaCl, 10% glycerol, 2 mM DTT, 0.1 ug/uL BSA; 30 min, 4 C (protocol of this paper; not …); cited from earlier work

The target in data set [1] is T1, Sxl (Drosophila melanogaster) (UniProt P19339).
T1 sequence: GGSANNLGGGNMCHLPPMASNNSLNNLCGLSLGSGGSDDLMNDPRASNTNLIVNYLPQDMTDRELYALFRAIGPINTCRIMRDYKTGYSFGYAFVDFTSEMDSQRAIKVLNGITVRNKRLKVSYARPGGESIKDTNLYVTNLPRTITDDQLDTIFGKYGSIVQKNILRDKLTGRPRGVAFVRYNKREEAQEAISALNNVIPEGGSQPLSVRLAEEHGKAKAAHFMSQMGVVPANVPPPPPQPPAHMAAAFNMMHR

In a further data set the target is T2, ZC3H10 (Homo sapiens) (UniProt Q96K80).
T2 sequence: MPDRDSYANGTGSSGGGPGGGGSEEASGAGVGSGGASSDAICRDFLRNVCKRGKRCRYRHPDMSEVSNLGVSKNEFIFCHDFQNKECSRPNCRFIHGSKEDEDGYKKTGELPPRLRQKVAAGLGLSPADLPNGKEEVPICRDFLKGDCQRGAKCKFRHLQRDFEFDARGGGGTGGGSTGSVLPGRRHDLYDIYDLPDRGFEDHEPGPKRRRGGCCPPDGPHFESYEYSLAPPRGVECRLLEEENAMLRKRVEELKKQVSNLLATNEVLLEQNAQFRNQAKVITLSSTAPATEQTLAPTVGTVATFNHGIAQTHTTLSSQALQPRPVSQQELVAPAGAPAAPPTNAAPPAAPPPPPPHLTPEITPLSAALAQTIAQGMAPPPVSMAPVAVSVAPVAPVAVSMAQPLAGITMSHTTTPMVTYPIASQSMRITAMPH

Data set [2] has as its target T3, orb2 (Drosophila melanogaster) (UniProt Q9VSR3).
T3 sequence: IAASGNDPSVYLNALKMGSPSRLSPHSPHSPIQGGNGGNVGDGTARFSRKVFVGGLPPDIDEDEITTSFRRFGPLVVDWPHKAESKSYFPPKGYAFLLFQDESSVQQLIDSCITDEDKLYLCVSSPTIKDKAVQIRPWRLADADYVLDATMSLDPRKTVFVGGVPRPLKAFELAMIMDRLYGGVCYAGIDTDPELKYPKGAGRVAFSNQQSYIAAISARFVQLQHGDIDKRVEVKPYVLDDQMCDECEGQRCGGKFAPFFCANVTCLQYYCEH

The target of another data set is ZCRB1 (Homo sapiens) (UniProt Q8TBF4).
Chain of ZCRB1 (Homo sapiens) (Q8TBF4 1-132): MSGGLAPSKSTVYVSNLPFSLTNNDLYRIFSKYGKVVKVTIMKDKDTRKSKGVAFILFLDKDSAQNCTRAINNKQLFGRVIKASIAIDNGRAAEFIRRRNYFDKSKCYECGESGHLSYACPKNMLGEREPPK
For data set [3], the target named is T4, how (Drosophila melanogaster) (UniProt O01367).
T4 sequence: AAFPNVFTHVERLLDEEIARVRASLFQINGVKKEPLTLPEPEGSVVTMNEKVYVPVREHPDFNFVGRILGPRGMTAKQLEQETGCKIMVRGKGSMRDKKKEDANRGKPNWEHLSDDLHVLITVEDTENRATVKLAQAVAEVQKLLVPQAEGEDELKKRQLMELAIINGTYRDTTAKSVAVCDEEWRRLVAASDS

For data set [4], the target named is T5, bru-3 (Drosophila melanogaster) (UniProt Q7K305).
T5 sequence: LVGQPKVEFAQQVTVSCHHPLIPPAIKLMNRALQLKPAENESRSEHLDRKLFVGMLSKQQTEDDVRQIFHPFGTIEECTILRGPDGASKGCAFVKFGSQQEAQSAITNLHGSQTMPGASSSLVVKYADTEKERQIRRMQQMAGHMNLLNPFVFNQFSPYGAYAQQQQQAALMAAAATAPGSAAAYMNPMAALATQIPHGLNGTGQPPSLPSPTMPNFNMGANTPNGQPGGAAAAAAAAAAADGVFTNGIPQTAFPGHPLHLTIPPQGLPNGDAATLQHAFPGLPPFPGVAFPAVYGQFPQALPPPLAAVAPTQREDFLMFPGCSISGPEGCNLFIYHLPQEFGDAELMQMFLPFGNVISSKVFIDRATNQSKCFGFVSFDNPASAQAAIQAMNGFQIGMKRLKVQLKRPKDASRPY

Data set [5] deals with T6, msi (Drosophila melanogaster) (UniProt H9ZJL0).
T6 sequence: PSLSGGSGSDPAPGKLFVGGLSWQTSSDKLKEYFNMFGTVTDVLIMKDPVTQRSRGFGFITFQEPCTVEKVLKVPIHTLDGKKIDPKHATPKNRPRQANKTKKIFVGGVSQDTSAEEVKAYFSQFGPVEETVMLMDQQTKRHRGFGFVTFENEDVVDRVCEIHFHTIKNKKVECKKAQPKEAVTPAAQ

Data set [6] addresses T7, elav (Drosophila melanogaster) (UniProt P16914).
T7 sequence: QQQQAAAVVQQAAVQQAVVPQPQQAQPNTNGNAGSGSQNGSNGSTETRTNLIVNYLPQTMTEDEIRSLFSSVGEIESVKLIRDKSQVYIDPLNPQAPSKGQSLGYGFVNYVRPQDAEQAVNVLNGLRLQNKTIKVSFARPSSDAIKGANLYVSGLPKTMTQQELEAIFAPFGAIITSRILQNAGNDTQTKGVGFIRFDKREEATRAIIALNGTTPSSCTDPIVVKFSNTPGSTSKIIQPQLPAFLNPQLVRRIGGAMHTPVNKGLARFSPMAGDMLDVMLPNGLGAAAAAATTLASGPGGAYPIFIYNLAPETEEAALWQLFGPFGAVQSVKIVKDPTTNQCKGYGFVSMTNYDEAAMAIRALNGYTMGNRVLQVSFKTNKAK

A further data set deals with SRSF1 (Homo sapiens) (UniProt Q07955).
Chain of SRSF1 (Homo sapiens) (Q07955 1-202): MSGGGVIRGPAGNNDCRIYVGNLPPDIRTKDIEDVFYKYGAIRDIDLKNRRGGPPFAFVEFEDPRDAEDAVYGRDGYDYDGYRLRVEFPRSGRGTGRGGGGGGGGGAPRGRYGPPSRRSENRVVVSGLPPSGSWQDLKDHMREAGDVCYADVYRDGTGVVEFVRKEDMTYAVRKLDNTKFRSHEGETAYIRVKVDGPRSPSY
The target of data set [7] is T8, Syp G309D (Drosophila melanogaster) (UniProt Q7KSA0).
T8 sequence: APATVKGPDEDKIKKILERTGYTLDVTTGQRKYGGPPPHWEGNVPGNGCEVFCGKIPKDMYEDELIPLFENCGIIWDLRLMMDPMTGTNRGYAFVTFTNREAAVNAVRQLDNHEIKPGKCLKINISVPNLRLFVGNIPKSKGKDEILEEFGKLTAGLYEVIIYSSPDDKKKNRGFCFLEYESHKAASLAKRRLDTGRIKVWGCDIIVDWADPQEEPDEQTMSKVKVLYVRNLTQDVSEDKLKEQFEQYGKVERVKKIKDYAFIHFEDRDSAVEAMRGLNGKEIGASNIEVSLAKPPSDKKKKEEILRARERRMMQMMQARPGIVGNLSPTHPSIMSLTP

The target of data set [8] is fne (Drosophila melanogaster) (UniProt Q7KIS3).
Chain of fne (Drosophila melanogaster) (Q7KIS3 entry or part of it): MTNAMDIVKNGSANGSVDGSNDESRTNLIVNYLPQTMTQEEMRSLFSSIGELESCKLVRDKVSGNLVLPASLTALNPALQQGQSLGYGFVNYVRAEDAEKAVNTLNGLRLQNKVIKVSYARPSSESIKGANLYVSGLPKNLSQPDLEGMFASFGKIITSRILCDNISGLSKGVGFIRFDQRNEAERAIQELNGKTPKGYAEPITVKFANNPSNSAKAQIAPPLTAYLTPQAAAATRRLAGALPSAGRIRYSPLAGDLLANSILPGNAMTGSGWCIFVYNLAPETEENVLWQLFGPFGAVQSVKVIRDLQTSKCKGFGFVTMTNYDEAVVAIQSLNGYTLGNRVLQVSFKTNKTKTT
Data set [9] deals with T9, Rbp1-like (Drosophila melanogaster) (UniProt M9MS48).
T9 sequence: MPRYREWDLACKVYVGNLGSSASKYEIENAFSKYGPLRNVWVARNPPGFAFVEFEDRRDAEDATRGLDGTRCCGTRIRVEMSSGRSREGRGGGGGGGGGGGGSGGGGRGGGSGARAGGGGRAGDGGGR

Data set [10] has as its target Rbp9 (Drosophila melanogaster) (UniProt A2RVE5).
The target of data set [11] is Hrb98DE (Drosophila melanogaster) (UniProt P07909).
Chain of Hrb98DE (Drosophila melanogaster) (P07909 whole entry): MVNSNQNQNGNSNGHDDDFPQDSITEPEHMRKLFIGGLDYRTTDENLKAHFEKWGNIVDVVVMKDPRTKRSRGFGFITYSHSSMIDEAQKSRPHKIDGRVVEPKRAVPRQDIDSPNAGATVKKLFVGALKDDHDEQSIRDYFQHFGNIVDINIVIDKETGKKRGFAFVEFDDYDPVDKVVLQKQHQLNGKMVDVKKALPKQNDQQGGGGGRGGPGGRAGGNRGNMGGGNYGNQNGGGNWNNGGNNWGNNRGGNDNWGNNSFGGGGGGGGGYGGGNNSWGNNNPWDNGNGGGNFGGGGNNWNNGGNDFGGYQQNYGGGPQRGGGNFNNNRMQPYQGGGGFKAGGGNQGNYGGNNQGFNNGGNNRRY
In data set [12] the target is T10, A2bp1 (Drosophila melanogaster) (UniProt Q9VT99).
T10 sequence: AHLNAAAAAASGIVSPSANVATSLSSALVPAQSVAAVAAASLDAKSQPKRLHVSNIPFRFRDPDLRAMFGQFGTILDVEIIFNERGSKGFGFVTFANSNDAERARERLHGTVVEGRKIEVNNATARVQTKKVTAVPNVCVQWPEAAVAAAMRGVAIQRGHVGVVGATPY

Data set [13] concerns the target T11, cpo (Drosophila melanogaster) (UniProt Q01617).
T11 sequence: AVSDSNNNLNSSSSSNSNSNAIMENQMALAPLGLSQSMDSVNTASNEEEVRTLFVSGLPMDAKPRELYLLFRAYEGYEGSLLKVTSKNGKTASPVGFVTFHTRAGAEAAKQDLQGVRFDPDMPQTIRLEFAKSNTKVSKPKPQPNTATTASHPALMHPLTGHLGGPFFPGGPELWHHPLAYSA

Chain of Rbp9 (Drosophila melanogaster) (A2RVE5 entry or part of it): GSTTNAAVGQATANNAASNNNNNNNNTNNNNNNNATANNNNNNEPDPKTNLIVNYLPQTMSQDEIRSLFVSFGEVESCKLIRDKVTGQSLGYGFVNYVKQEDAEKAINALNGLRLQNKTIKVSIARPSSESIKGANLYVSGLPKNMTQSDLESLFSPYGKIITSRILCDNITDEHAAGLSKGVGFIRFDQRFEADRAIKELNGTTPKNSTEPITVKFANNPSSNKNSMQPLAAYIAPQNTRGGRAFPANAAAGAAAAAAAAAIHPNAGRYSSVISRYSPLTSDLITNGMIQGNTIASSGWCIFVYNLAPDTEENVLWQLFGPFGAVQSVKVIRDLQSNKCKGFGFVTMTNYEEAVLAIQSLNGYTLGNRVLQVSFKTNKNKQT

Turning to UUUUUUU [RNAcompete motif RNCMPT00119], in data set [1], the binding signal (z-score (mean of top ten 7-mers)) was 17.2.
For GCAGCGCG [RNAcompete motif RNCMPT00085], the binding signal (z-score (mean of top ten 7-mers)) in the data set with ZC3H10 (Homo sapiens) was 16.6.
Regarding UUUUUUG [RNAcompete motif RNCMPT00126], the binding signal (z-score (mean of top ten 7-mers)) in [2] is 15.9.
Take GAAUUAAG [RNAcompete motif RNCMPT00087]: the binding signal (z-score (mean of top ten 7-mers)) in the data set with ZCRB1 (Homo sapiens) is 12.
ACUAAC [RNAcompete motif RNCMPT00118]: the binding signal (z-score (mean of top ten 7-mers)) in data set [3] was 25.4.
For GUGUUGU [RNAcompete motif RNCMPT00122], the binding signal (z-score (mean of top ten 7-mers)) in data set [4] is 20.4.
Turning to GUAGUU [RNAcompete motif RNCMPT00099], the binding signal (z-score (mean of top ten 7-mers)) in data set [5] is 11.6.
In the case of UUUUUUU [RNAcompete motif RNCMPT00121], the binding signal (z-score (mean of top ten 7-mers)) in data set [6] was 17.2.
Consider GAGGAGC [RNAcompete motif RNCMPT00163], for which the binding signal (z-score (mean of top ten 7-mers)) with SRSF1 (Homo sapiens) was 11.3.
Turning to AAAUU [RNAcompete motif RNCMPT00131], the binding signal (z-score (mean of top ten 7-mers)) in [7] is 13.5.
In the case of UUUUUUU [RNAcompete motif RNCMPT00120], the binding signal (z-score (mean of top ten 7-mers)) in data set [8] is 12.7.
Regarding CAUCAUCG [RNAcompete motif RNCMPT00127], the binding signal (z-score (mean of top ten 7-mers)) in data set [9] was 10.7.
With UUUNGUU [RNAcompete motif RNCMPT00132], the binding signal (z-score (mean of top ten 7-mers)) in data set [10] is 15.5.
For the substance GGUAGGG [RNAcompete motif RNCMPT00096], in [11], the binding signal (z-score (mean of top ten 7-mers)) is 21.8.
In the case of UGCAUG [RNAcompete motif RNCMPT00123], in data set [12], the binding signal (z-score (mean of top ten 7-mers)) was 21.3.
For the substance AGCAC [RNAcompete motif RNCMPT00133], in [13], the binding signal (z-score (mean of top ten 7-mers)) was 12.9.
